Source: a protein production outcome set (Wang et al. 2014)

Assay: label from the status in PepcDB records
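Also: failed if final PepcDB status was selected cloned or expressed and not failed if soluble or beyond.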

Row | Sequence | protein production
1 | MTVTAPNALNFECETGNYHTFCPISCVAWLYQKIEDSFFLVIGTKTCGYFLQNAMGVMIFAEPRYAMAELEEGDISAQLNDYEELKRLCLEIKRDRNPSVIVWIGTCTTEIIKMDLEGLAPKLEAEIGIPIVVARANGLDYAFTQGEDTVLAAMAARCPTSTAISDPEERNPIQRLLNFGKKKEEVQAQSSQYHPHPPLVLFGSLPDPVVTQLTLELKKQGIKVSGWLPAKRYTELPVIDEGYYVAGVNPFLSRTATTLIRRRKCQLITAPFPIGPDGTRTWIEQICATFGIQPQGLAEREAETWQKLSDYLELVRGKSVFFMGDNLLEISLARFLIRCGMRVLEIGIPYMDKRYQAAELALLSQTCAEMGHPLPTIVEKPDNYNQLQRIKALQPDLVITGMAHANPLEARGISTKWSVEFTFAQIHGFGNARDILELVTRPLRRNQALAGLGWQKLVAHLEHHHHHH | failed
2 | MTVTLKNDYLTVQINEKGAELSSVKANDGIEYIWQADPAVWGRHAPVLFPFVGRLKDDQFQVEDQTYPMGQHGFARDMDFEAVEQDDQHVIMELNSDTETLQKFPFEFKLRLHFTLKDHELIEHYEVVNPDSKKDLLFSIGGHPGFNLNLGDNQIQMEDTHIRIAPKQVYNQIPLKAPYTDPKNPIKFDATTPLDLTHALFKDDAIILDLKGEQITLMTENEVNNHGIAFTVANAPYLGIWSPYPATANFVCLEPWWGIADTVNFNGELKDKLGVNRLAAQETFNQEFSMSFF | failed
3 | MTVVVEFLGTGGAHSEDLGSSSARISLPNSQNMLIDFGPDTYFSVNTRKLQFDAIFITHAHLDHVGGLERLFFSVAFKKQRLIKLYVPVSLVTRLHQIFGMAGSQVAEGGKNFWDCFQLIPITDYFYFSGYRFNVFPVRHHFPGEAFGLALPGCFVYTGDTRPIPEQLVAHAGRGELIFHDATTSSNPAHSALDDLKREYALHDVLDRLVLYHFDSAVERELAETQGWKTVRLGVTYQFGCRHVCSGSMCSNAELSSLGTNKALHNERGTKLPRPSIKKDEFV | failed
4 | MTYGEAYLEGWKNIFNYEGVSNRFEFWSFMIGSGVICLLPLLCWWLAVTINNDYGVFIFFALPVSFILTLIFAVPAIALAVRRMHDIGYSGWWVTIAVLIPVTGVILLILCCLPSKSQDQA | failed
5 | MTYNVTALVGNAGNQDTSGVRVDFVDNGVRVGSYTIPLLRSGETTTVVFNWTPMTVGSHTLQLIIDPENHIQETNETNNRIIL | failed
6 | MVAATSQNTFDSPRSPLYNFTMDIRPLSDVAGVILVGGRSRRMGRDKALIPLGGKPLVERVIDAFRPLFERILLVGDRGERFASYGLPVFPDIHPGSALGGLYTGLVRAGTPHVFVSACDVPWPDPRVIARLCSLREGFDVVVPRTVGGSEPLFAVYGTGCLPAMERMLREGNYRIYDFYPEVRTRYVEQAELADLVTPARTFVNVNTPEEFETIRNREEGMAIKAVSFVAKSGTGKTTLLEKVIAELKGRGYRIGVIKHDAHRFDIDHPGKDSHRLAAAGADTMLIASPEKLALVKKYDESPPLDELLATYFGDVDIVLTEGFKKSSLPKIEVHRMERSATLLCRGEEHDPTLVAVASDAALALDVPVFDLNNPAQVADFVERTFLAAGAALEHHHHHH | not failed
7 | MVALRGKEIDAFLARPDAGRPIVLLYGPDAGLVRERADALIASAVDDPNDPFSLVRLDGDELSAEPSRLVDEAMTVPLFGGQRAIRVRAGSRSFASGIDTLAEMGVKDCRIVIEAGELRPESPLRKACERAKTAVAIGCYPDTERDLAKLMDDELRIANLRIAQDARAALMSFLGGDRQASRNELRKLTLYAHGKGEITLEDVMAVVADASELKLDPIVDGAFAGRPDIVETEFAKAMIAGTYPGVIISAAQRQAAWLHKSALAIADGQPASAVLDGGFPRLHFSRKPAVETALRNFSVARLAAIIEQLATAALDTRKQSTLAAAIAQRTLMAIAANAKRRGLEHHHHHH | failed
8 | MVANLPALFSLGVFVGVILLIMSEKIHLTIAAFLGALILVFTHVITLKEGIDYISQSYATLALFFGVMVLVRSFEPTKIFEYLATQMVLLAKGSGKLLMLGVIAITTPICAVLPNATTVMLLAPLIPPLAQEIGVDFVPILILMVFVANSAGLLTLVGDPATFIVGDAINISFNDYLFKLSFMGVLAIVSIVVITPFLFRHIWRSRFTHLEDLPHPQINHPKVLMAGGVIITLVLIFFVIGESLPVPIPPASVALMGACLALLLASQSKIDTVHNILRDVDWSTLIFFMSIFVIIGSLEKTGVTASLAQLLAVVVGQNIAFGAIVLVFTVGLLSSVVPNIPLVVAMVPLLKQYVVNIGFAGPEILGANFDGQLPAEVLPLFYAMMFGATLGGNGTLVGASSNIVAAGISEQHGRPISFHRFLRYGLPVMAVQLVVAALFVAWLMFTQQG | failed
9 | MVANLVTVVIVNYNSGEMLGKCVEHLLKSTVPIQIIISDNASSDNSLALLEQSELNKQTITIHRNNSNYGFSYANNAVFTKISTPFILYLNPDCFVENDTIENLLHTMHQHNDAGMVGCLVNNMDGSVQIGCCGLTPTPARVLNQLLKLSKIFPNNSKFGGYLFSKEKLPTKPTEVELISGSCMFVRKKAIDEVGLLDDNYFLYCEDYDWFYRFTQSNWKIIFNPNTKVTHIKSFSTKQIPFKVLLYKAKGMWRFYNKFFKENSSPATTLIIRVGIIARFFSLSGLLLFKKLLRTTS | failed
10 | MVAYPGPMPRSPSPGQTPDAPTSGGGSTDSTRQRIVAAAKEEFARHGIAGARVDRIAKQARTSKERVYAYFRSKEALYAHVAERETTALIEATQLDPADLPGYAGILFDHFAARPDHYRLITWGRLELAESADNTSGPLQATIAGKLDKLRDAQRIGLLDPAWDPVDVLALINQIAMTWAGQPEIAAAAADQAVDPSVTARRAALVTAVEHMFPRPDRDQRPNRLT | not failed
11 | MVDISLIIGGPQGGGIESAGQIAIKSMVLLGYEVLGSREYHSNIMGAHSYYHLRVQQHRPRSLKLPVDGVLALDAESVFTHFRDVRPGGILVYDPGTKSTRVDAIQPMAGPLKKRLKSLFDSRGMQPVVESAVKLAEEAGARIVGLPLKEMLKTLSERTGAPVARVSRALNTLGLASMLYMLGVPVEYIEKAISLQFAGKEKVINMNVEAVRIAVDYVREAFGEPESRLPPGPRRGQTMMVATGNDLVAMGKIVGGLGVITYYPITPSSDEALYVEKHSYISIDGPLAEKLGYDKIAVAIVQMEDELASINAVLGAAAAGARASTTTSGPGFSLMNEAVSLAVEAEIPVVVTLWMRAGPSTGMPTRTGQQDLLHSIFSGHGDAPKIVLASGDHVEAFYDAIKAFNWAEEFQTPVIHLLDKYLASSMVSLAREDLDPSKVPITRGKLLDNPPADYRRYEVVEDGISPRARLGSATMVITGLEHDEYGYATEDPVMREIMMFKRERKFKVIEERIPDEEKAVLHGDSEASVALVSFGSTKQPILEALEMLRDEGVRARFAQVRLLYPFPGRLVEEMLEGVEKVIMVEQNLLGQLAMLLRAHTSIKPDSSIVKINGRPLYSFEVAGAVKRILETGEERVVVSHGS | failed
12 | MVDKGVVNNVDECVEGTDHCHIDAICQNTPRSYKCICKSGYTGDGKHCKDVDECEREDNAGCVHDCVNIPGNYRCTCYDGFHLAHDGHNCLDVDECAEGNGGCQQSCVNMMGSYECHCRDGFFLSDNQHTCIQRPEEGMNCMNKNHGCAHICRETPKGGIACECRPGFELTKNQRDCKLTCNYGNGGCQHTCDDTEQGPRCGCHVKFVLHTDGKTCIETCAVNNGGCDSKCHDAATGVHCSCPVGFMLQPDRKTCKDIDECRLHNGGCDHICRNTVGSFECSCKKGYKLLINERSCQDIDECSFDRTCDHMCVNTPGSFQCLCHRGYLLYGISHCGDVDECSINKGGCRFGCINTPGSYQCTCPAGQGRLHWNGKDCTEPVKCQSSSGASKAMLSCSRSGKKDTCALTCPSRARFLPESENGFTVSCGTPSPKAAAGRAIHPGNSTISNSCHEAAVLPVKQRASFKIKDAKCRLHLRNKGKAEEASGRTPGPGGASCSDCQVTFIHLKCDSSRKGKGRRARTPPGKEVTRLTLELEAEVRAEETTAGCGLTCLRQRMERRLKGSLKMLRKSINQDRFLLRLAGLDYELAHKPGLAAGDRAELVEVCRPGQHRAGTKCVSCPQGTYYHGQTEQCVPCPAGTFQEREGQLSCDLCPGSDAHGPLGATNVTTCAGQCPPGQHSGDGFKPCQPCPRGTYQPEAGRTLCFPCGGGLTTKHEGAVSFQDCDTKVQCSPGHYYNTSIHRCIRCAVGSYQPDFRQNFCTRCPGNTSADFDGSTSVAQCKNRQCGGELGEFTGYIESPNYPGNYPAGVECIWNINPPPKRKILIVVPEIFLPSEDECGDVLVMRKNSSPSSITTYETCQTYERPIAFTARSRKLWINFKTSEANSARGFQIPYVTYDEDYEQLVEDIVRDGRLYASENHQEILKDKKLIKAFFEVLAHPQNYFKYTEKHKEMLPKSFIKLLRSKVSSFLRPYK | failed
13 | MVDLGKQRDHNYHHMQIITTPTSVDCSREFRHRRTLRSLIECMIPYCCTYQQQPYQNDTLSVSSTSSSSSSSDHSSSSQSSSTVSGTFFGHRRGRVSFCLQDAAVGSSPLLLLELAVPTAALAKEMDEEGVLRIALECDRRRSSNSRSSSIFDVPVWSMFCNGRKMGFAVRRKVTENDAVFLRMMQSVSVGAGVVPSEEEDQMLYLRARFERVTGSSDSESFHMMNPGGSYGQELSIFLLRS | failed
14 | MVDNKKKRQYPLVPLSVIQSALEEDPISIKMILKHYHSYIVKLCLTNGFNEAEQFITYVDEYMLRQLEIKLIEAILKFKINLEHHHHHH | failed
15 | MVDPNEHKKAVKTQQQDDEQTFEAVARAWHTDNKKWSESHAERILKSLSDNIFPAIGGTHVANLKTRDLLTPIKSVERSGRLEVAKRLKQRVTAIMTYAVQNGLIDYNPAQDMAGAIMPGKVEHRLEHHHHHH | failed
16 | MVDQQDTFAEYFKNWYIFYKKPKVSKVTLNRYQYTYNVINEYFGNKLLKDITRANYQKFIVKYGQNHSPNTMKMINNCIKACVKNAVYDEEIKKDFTYNIELISNRLEHHHHHH | failed
17 | MVDSHVHTPLCGHAEGHPEAYLEEARAKGLKGVVFTDHSPMPPWYDPESRMRLEALPFYLLALERVRERAQDLYVGIGLEADFHPGTEGFVAQLLRRYPFDYVIGSVHYLGAWPLDHPDHQEEYAWRDLKEVFRAYFQEVEKAARSGLFHAIGHLDLPKKFGHRLPEEALLELAEPALRAVAEAGLFLDVNTAGLRRPAKEVYPAPALLRRARELGIGLVLGSDAHRPEEVGFAFPEVQALLAGLGFREAYYFVEGSPVAYPLSRASLEHHHHHH | not failed
18 | MVEAIIFDMDGVLFDTEKYYYDRRASFLGQKGISIDHLPPSFFIGGNTKQVWENILRDEYDKWDVSTLQEEYNTYKQNNPLPYKELIFPDVLKVLNEVKSQGLNIGLASSSVKADIFRALEENRLQAFFDIVLSGEEFKESKPNPEIYLTALKQLNVQASRALIIEDSEKGIAAGVAADVEVWAIRDNLFGMDQSAAKGLLDSLTDVLDLIK | not failed
19 | MVEPSLVLYGAPYERAVEVLEETLRETGARYALLIDRKGFVLAHKEALWAPKPPPLDTLVTLVAGNAAATQALAKLLGEARFQEEVHQGERMGLYVDEAGEHALLVLVFDETAPLGKVKLHGKRAAEALARIAEEALANPPRLALDTEYREGAEALLDDLLRN | not failed
20 | MVESWALTTPPIDIVNQYLFFIKRKTNYMATYYYALASQKFLLEEEPFEEVLKERRRDYGEKNKEIDFWQVIQPAFLNAPELAEAKAKAPEKNVAIVSTNKSFIVWVKLRLEYVLTGEFEAPSDAIPDPLASLDLEHHHHHH | failed
21 | MVEVESDSVAERDRSSFLAGHDAIRLAKSCVDSPPERWYAALYQVYADLTKLRCWSNVEVVYSDSATFPTGLLGPLFEEDSMVQELHSAQCILGSERACFHVRCCIVGSPPSGRAINALSPQSETRTEERIITSRREPEVVIAVPMHAMLKLSNLDQALRMSSHIEGIVKNRHVADSSASTHSTDRQAGSRKSSVIFGFVDEDTTTAYYRIREGACESNDRREFSTDDIASCLAQERT | not failed
22 | MVFDAIVVTDLQGFIIDWNKGSETLYGYSKEQAIGQPVNMLHVPGDTEHITSEVISAVENQGKWTGEIRMLHKDGHIGWIESMCVPIYGENYQMVGALGINRDITKRKKELEHHHHHH | failed
